This note sets out measurements from patent US20230093239 (published 2023).

Data set [1] concerns the target T1, alpha-thrombin (Homo sapiens, UniProt P00734;P00734 P00734:328-363,P00734:364-622). Nature of the data set: negative control on membrane-type surface stress sensor, used as reference for voltage difference; 240 nM thrombin in PBS.
The target of data set [2] is T1, alpha-thrombin. Nature of the data set: membrane-type surface stress sensor; voltage difference vs poly T control; 240 nM thrombin in PBS.

B1: poly T control (ssDNA)
DNA: TTTTTTTTTTTTTTTTTTTT
With B1, in data set [1], the binding result was “no binding”.

B2: thrombin aptamer (15-mer with T5 tail) (ssDNA)
DNA: GGTTGGTGTGGTTGGTTTTT
As for B2, in data set [2], the binding result is on record as “binds”.
